These results are taken from patent US20020091083.

The series addresses YB-1 (expressed from YB-1/RSV) (Homo sapiens) (UniProt P67809). As to the kind of experiment: cell_activity. Particulars: human glioblastoma cells.

Regarding “COL1A2 promoter -161 to +57 CAT binding reporter”, the activity (relative CAT activity) (repression, empty vector pRc/RSV = 1.0) is 0.6. Consider “COL1A2 promoter -161 to +57 CAT non-binding reporter”, for which the activity (relative CAT activity) (no repression, empty vector pRc/RSV = 1.1) was determined as 1.
